Test results: the supplement of paper PMC10598134
± gives the standard deviation.

Test: collision cross section of unmodified peptide (TIMS, N2, iRT-aligned); higher = larger / more extended gas-phase ion
In short: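 Collision cross section values rest on the Mason-Schamp equation applied to calibrated, run-aligned mobility data from synthetic peptides. Mobility (1/K0) was calibrated with three reference ions and aligned per run to the median iRT peptide deviation, and 1–3 technical replicates of the most abundant feature per charge state were averaged. Data came from a timsTOF Pro/HT in dda-PASEF mode (nitrogen, ~2.4 mbar) after a 120-min nanoflow C18 gradient at 60 °C.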

For LSQEDPDYGIR, the collision cross section (charge state: 2) was 376.56 ± 0.14 Å².
LSSETYSQAK showed a collision cross section (charge state: 2) of 348.96 ± 1.1 Å².
LSTPPPLAEEEGLASR gave a collision cross section (charge state: 2) of 436.07 ± 0.65 Å² and a collision cross section (charge state: 3) of 482.68 ± 0.86 Å².
LTEKELAEAASK gave a collision cross section (charge state: 2) of 387.7 ± 1 Å² and a collision cross section (charge state: 3) of 479.05 ± 4.3 Å².
In the case of LTSLNVKYNNDK, the collision cross section (charge state: 2) is reported as 409.04 ± 2 Å² and the collision cross section (charge state: 3) is reported as 487.29 ± 4.9 Å².
Substance LVFDEYLK has a collision cross section (charge state: 2) of 354.45 ± 0.59 Å².
Work on LVLPSQAQARLPSGEVVK yielded a collision cross section (charge state: 2) of 482.13 ± 2.1 Å² and a collision cross section (charge state: 3) of 526.02 ± 0.85 Å².
In the case of LYAVHQEGNK, the collision cross section (charge state: 2) is reported as 357.2 ± 1.5 Å² and the collision cross section (charge state: 3) is reported as 449.31 ± 1.1 Å².
LYDIDVAK showed a collision cross section (charge state: 2) of 334.71 ± 0.73 Å².
Substance LYLPVQNK has a collision cross section (charge state: 2) of 336.72 ± 0.73 Å².
MFLSFPTTK showed a collision cross section (charge state: 2) of 348.96 ± 0.14 Å².
MTLSVLSR gave a collision cross section (charge state: 2) of 327.34 ± 0.14 Å².
Substance NLVTGDHIPTPQDLPQR has a collision cross section (charge state: 3) of 475.9 ± 0.23 Å².
Work on PANEKATDDYHYEK yielded a collision cross section (charge state: 2) of 416.54 ± 2.6 Å² and a collision cross section (charge state: 3) of 493.57 ± 4.5 Å².
PARGLYSR showed a collision cross section (charge state: 2) of 333.72 ± 0.072 Å² and a collision cross section (charge state: 3) of 420.97 ± 6 Å².
For PASGAGAGAGAGKR, the collision cross section (charge state: 2) was 378.29 ± 1.2 Å² and the collision cross section (charge state: 3) was 457.42 ± 4 Å².
PATSYVR showed a collision cross section (charge state: 2) of 307.47 ± 0.15 Å².
Substance PAVTAAPK has a collision cross section (charge state: 2) of 290.54 ± 0.15 Å².
Work on PDTQYTGR yielded a collision cross section (charge state: 2) of 315.91 ± 0.73 Å².
Substance PGGEGPQCEKTTDVK has a collision cross section (charge state: 2) of 411.04 ± 2 Å² and a collision cross section (charge state: 3) of 465.58 ± 3.8 Å².
In the case of PGGLGSSSLYGLGASRPR, the collision cross section (charge state: 2) is reported as 472.2 ± 0.073 Å² and the collision cross section (charge state: 3) is reported as 533.78 ± 0.86 Å².
PGLKGEQGEPGAPGIR gave a collision cross section (charge state: 2) of 410.66 ± 1.2 Å² and a collision cross section (charge state: 3) of 510.99 ± 0.86 Å².
PGLQGPR showed a collision cross section (charge state: 2) of 285.1 ± 4.4 Å².
Work on PGNSGIR yielded a collision cross section (charge state: 2) of 278.56 ± 0.86 Å².
In the case of PGPKGEAGPTGPQGEPGVR, the collision cross section (charge state: 2) is reported as 431.75 ± 0.38 Å² and the collision cross section (charge state: 3) is reported as 479.17 ± 5.1 Å².
Substance PGPQPSAETTR has a collision cross section (charge state: 2) of 342.87 ± 0.58 Å² and a collision cross section (charge state: 3) of 415.85 ± 2 Å².
With PGPRGQR the collision cross section (charge state: 2) was 296.23 ± 0.53 Å².
PGPVGPPGSGGLK showed a collision cross section (charge state: 2) of 353.19 ± 0.41 Å².
PGSPGPPGSPGPR gave a collision cross section (charge state: 2) of 347.56 ± 0.41 Å² and a collision cross section (charge state: 3) of 430.78 ± 12 Å².
PGTPAGYGRGR showed a collision cross section (charge state: 2) of 352.56 ± 0.57 Å² and a collision cross section (charge state: 3) of 442.29 ± 3.7 Å².
For PLPVALQTRLAK, the collision cross section (charge state: 2) was 398.31 ± 0.59 Å² and the collision cross section (charge state: 3) was 471.01 ± 3.4 Å².
For PLRAASPFR, the collision cross section (charge state: 2) was 352.16 ± 0.084 Å² and the collision cross section (charge state: 3) was 447.55 ± 5.2 Å².
Work on PPGFSPFR yielded a collision cross section (charge state: 2) of 328.84 ± 0.79 Å².
In the case of PPGFSPFRSSR, the collision cross section (charge state: 2) is reported as 357.9 ± 0.86 Å² and the collision cross section (charge state: 3) is reported as 455.41 ± 1.7 Å².
Work on PRGVISTPVIR yielded a collision cross section (charge state: 2) of 371.76 ± 0.55 Å² and a collision cross section (charge state: 3) of 450.44 ± 3.9 Å².
With PRLPATGTFK the collision cross section (charge state: 2) was 354.31 ± 1.3 Å² and the collision cross section (charge state: 3) was 450.95 ± 3.9 Å².
With PRTPTAPAVNLAGAR the collision cross section (charge state: 2) was 406.96 ± 1.8 Å² and the collision cross section (charge state: 3) was 484.37 ± 1.2 Å².
With PSIHGGSGGRGVSVSSAR the collision cross section (charge state: 3) was 503.12 ± 0.69 Å².
Substance PSVGSQSNQAGQGKR has a collision cross section (charge state: 2) of 422.59 ± 2.3 Å² and a collision cross section (charge state: 3) of 465.3 ± 4.2 Å².
PSVSTKLISK gave a collision cross section (charge state: 2) of 360.6 ± 1.3 Å² and a collision cross section (charge state: 3) of 423.25 ± 3.8 Å².
QGNAVTLGDYYQGR showed a collision cross section (charge state: 2) of 415.78 ± 0.66 Å².
With QQETAAAETETR the collision cross section (charge state: 2) was 373.98 ± 0.14 Å² and the collision cross section (charge state: 3) was 456.85 ± 0.22 Å².
RFGGPVHHQAQR gave a collision cross section (charge state: 2) of 386.03 ± 0.46 Å² and a collision cross section (charge state: 3) of 495.72 ± 1.2 Å².
RFSPPSSSLQPGK showed a collision cross section (charge state: 2) of 393.03 ± 0.67 Å² and a collision cross section (charge state: 3) of 484.72 ± 0.22 Å².
For RGATPPAPPR, the collision cross section (charge state: 2) was 338.24 ± 0.44 Å² and the collision cross section (charge state: 3) was 461.07 ± 2.4 Å².
RGATPPAPPRR showed a collision cross section (charge state: 3) of 465.11 ± 2.3 Å².
For RGFGFGGFAISAGK, the collision cross section (charge state: 2) was 395.08 ± 0.89 Å² and the collision cross section (charge state: 3) was 486.34 ± 2.6 Å².
Substance RGGFAVQAK has a collision cross section (charge state: 2) of 337.58 ± 0.46 Å².
In the case of RGPPGAK, the collision cross section (charge state: 2) is reported as 308.91 ± 1.4 Å².
In the case of RGVGAGAIAK, the collision cross section (charge state: 2) is reported as 327.01 ± 0.73 Å².
RLDINTNTYTSQDLK gave a collision cross section (charge state: 3) of 533.11 ± 1 Å².
With RLPNVHGR the collision cross section (charge state: 2) was 332.52 ± 0.039 Å² and the collision cross section (charge state: 3) was 419.7 ± 5.1 Å².
Work on RLPTTGYLVYR yielded a collision cross section (charge state: 2) of 389.8 ± 0.35 Å² and a collision cross section (charge state: 3) of 475.19 ± 2.9 Å².
With SAGSVESPSVSSTHR the collision cross section (charge state: 2) was 394.4 ± 0.14 Å² and the collision cross section (charge state: 3) was 493.72 ± 0.22 Å².
For SALAAAQTQVAEYK, the collision cross section (charge state: 2) was 422.48 ± 1.1 Å².
